Reference: patent publication US20260234228A1 (GENOME, published 2026)

T1: human CNTN4 overexpressed on cells (human, UniProt Q8IWV2 19-1000)
T1 construct: whole, on cells; the construct is not described; also called human CNTN4 cell; human CNTN4-overexpressing 293F cells
T1 sequence (looked up): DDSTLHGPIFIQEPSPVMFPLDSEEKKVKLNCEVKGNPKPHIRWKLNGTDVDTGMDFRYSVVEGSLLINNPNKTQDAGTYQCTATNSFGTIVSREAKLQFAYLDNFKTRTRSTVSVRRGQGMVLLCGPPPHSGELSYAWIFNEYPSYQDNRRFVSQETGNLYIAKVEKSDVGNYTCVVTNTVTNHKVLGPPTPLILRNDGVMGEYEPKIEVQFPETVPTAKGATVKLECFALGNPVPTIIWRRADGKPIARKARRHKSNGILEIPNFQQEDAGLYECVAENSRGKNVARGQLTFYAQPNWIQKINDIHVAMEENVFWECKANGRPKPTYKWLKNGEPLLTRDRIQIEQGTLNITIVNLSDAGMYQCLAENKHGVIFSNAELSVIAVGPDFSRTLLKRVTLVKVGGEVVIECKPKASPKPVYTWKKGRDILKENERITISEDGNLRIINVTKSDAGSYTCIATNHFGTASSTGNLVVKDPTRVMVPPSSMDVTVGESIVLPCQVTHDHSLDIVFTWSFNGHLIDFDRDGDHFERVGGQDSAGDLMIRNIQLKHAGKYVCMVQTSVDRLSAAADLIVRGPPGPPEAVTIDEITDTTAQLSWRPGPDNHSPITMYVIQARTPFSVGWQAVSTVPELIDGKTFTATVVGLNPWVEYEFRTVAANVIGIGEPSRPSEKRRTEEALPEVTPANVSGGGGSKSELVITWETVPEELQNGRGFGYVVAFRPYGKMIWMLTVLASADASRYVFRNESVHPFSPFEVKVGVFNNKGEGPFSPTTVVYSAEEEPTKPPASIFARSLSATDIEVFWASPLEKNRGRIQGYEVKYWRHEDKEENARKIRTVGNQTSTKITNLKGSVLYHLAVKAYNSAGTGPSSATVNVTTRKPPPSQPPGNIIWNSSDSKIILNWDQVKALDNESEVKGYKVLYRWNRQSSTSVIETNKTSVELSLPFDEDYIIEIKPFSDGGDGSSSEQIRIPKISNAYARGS

T2: mouse CNTN4 overexpressed on 293F cells (mouse, UniProt Q69Z26 19-1000)
T2 construct: whole, on cells; Overexpressed on 293F cells; the construct is not described; also called Mouse CNTN4 cell; mouse antigen-overexpressing 293F cells
T2 sequence (looked up): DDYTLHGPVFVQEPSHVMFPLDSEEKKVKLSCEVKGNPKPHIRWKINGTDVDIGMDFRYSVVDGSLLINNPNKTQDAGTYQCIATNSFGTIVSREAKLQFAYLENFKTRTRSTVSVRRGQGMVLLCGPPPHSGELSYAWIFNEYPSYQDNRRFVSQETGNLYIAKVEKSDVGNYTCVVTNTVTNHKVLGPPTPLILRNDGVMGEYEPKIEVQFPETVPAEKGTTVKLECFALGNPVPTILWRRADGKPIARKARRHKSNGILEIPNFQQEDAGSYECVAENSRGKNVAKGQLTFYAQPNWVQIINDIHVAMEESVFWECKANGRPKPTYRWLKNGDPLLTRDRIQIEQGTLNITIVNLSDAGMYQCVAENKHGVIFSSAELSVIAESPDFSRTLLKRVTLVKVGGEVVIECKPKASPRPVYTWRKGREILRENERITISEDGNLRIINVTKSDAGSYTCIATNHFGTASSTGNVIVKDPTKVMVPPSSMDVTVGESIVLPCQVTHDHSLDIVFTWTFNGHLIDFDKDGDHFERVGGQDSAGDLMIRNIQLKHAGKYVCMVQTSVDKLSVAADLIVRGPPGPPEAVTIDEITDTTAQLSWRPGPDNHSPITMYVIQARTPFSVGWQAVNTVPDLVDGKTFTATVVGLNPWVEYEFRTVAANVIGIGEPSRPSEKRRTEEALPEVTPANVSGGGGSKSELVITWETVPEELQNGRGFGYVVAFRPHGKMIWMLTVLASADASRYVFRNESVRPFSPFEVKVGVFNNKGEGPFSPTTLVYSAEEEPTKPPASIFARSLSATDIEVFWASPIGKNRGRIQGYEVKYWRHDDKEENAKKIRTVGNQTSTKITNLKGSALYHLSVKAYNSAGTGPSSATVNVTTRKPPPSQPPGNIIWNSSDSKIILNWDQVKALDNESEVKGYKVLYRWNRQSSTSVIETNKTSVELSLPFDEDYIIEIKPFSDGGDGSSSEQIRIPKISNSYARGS

B1: A209 scFv (scFv, V domains shown)
VH: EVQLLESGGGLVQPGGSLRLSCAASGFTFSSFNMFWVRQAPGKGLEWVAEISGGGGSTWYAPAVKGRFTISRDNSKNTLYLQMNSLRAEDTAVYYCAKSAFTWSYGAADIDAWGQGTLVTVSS
VL: ELTQDPAVSVALGQTVRITCSGRSGSYGWYQQKPGQAPVLVIYDNTNRPSGIPDRFSGSSSGNTASLTITGAQAEDEADYYCGGYWGSTDVFGGGTKLTVL
B2: A218 scFv (scFv, V domains shown)
VH: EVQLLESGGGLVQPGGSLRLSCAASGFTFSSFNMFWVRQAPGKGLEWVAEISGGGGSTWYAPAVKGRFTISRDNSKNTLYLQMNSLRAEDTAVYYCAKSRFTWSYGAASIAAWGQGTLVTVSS
VL: ELTQDPAVSVALGQTVRITCSGRSGSYGWYQQKPGQAPVLVIYDNTNRPSGIPDRFSGSSSGNTASLTITGAQAEDEADYYCGGYWGSTDVFGGGTKLTVL
B3: A217 scFv (scFv, V domains shown)
VH: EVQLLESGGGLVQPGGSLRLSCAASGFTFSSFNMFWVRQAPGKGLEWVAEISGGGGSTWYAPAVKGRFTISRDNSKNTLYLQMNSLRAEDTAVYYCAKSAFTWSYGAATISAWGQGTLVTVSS
VL: ELTQDPAVSVALGQTVRITCSGSSGSYGWYQQKPGQAPVLVIYDNTNRPSGIPDRFSGSSSGNTASLTITGAQAEDEADYYCGGYWGSTDVFGGGTKLTVL
B4: A215 scFv (scFv, V domains shown)
VH: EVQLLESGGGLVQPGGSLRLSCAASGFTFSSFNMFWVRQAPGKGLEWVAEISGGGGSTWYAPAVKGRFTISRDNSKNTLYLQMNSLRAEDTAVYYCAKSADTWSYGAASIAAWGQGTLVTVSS
VL: ELTQDPAVSVALGQTVRITCSGSSGSYGWYQQKPGQAPVLVIYDNTNRPSGIPDRFSGSSSGNTASLTITGAQAEDEADYYCGGYWGSTDVFGGGTKLTVL
B5: A211 scFv (scFv, V domains shown)
VH: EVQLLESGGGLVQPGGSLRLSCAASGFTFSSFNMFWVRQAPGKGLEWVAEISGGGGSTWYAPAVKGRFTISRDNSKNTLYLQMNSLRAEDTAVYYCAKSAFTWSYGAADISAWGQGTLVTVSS
VL: ELTQDPAVSVALGQTVRITCSGRSGSYGWYQQKPGQAPVLVIYDNTNRPSGIPDRFSGSSSGNTASLTITGAQAEDEADYYCGGYWGSTDVFGGGTKLTVL
B6: A204 scFv (scFv, V domains shown)
VH: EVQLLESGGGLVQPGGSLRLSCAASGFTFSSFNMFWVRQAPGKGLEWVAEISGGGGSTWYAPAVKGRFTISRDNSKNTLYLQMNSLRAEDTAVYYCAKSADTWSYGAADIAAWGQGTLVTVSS
VL: ELTQDPAVSVALGQTVRITCSGRSGSYGWYQQKPGQAPVLVIYDNTNRPSGIPDRFSGSSSGNTASLTITGAQAEDEADYYCGGYWGSTDVFGGGTKLTVL
B7: A203 scFv (scFv, V domains shown)
VH: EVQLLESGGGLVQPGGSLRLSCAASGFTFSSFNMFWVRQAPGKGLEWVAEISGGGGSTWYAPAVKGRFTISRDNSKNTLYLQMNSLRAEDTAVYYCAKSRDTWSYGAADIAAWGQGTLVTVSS
VL: ELTQDPAVSVALGQTVRITCSGRSGSYGWYQQKPGQAPVLVIYDNTNRPSGIPDRFSGSSSGNTASLTITGAQAEDEADYYCGGYWGSTDVFGGGTKLTVL
B8: A212 scFv (scFv, V domains shown)
VH: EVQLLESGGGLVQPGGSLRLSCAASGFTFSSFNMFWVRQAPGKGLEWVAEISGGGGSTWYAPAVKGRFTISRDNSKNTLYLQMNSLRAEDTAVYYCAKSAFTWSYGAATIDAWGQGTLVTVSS
VL: ELTQDPAVSVALGQTVRITCSGRSGSYGWYQQKPGQAPVLVIYDNTNRPSGIPDRFSGSSSGNTASLTITGAQAEDEADYYCGGYWGSTDVFGGGTKLTVL
B9: A205 scFv (scFv, V domains shown)
VH: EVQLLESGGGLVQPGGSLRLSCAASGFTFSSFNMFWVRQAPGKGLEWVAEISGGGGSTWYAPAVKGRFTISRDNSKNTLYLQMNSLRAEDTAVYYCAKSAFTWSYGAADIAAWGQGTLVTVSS
VL: ELTQDPAVSVALGQTVRITCSGSSGSYGWYQQKPGQAPVLVIYDNTNRPSGIPDRFSGSSSGNTASLTITGAQAEDEADYYCGGYWGSTDVFGGGTKLTVL
B10: A208 scFv (scFv, V domains shown)
VH: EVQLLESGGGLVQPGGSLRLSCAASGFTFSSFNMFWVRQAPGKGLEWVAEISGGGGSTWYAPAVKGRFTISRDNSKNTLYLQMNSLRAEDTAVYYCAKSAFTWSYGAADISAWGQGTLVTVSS
VL: ELTQDPAVSVALGQTVRITCSGSSGSYGWYQQKPGQAPVLVIYDNTNRPSGIPDRFSGSSSGNTASLTITGAQAEDEADYYCGGYWGSTDVFGGGTKLTVL
B11: A201 scFv (scFv, V domains shown)
VH: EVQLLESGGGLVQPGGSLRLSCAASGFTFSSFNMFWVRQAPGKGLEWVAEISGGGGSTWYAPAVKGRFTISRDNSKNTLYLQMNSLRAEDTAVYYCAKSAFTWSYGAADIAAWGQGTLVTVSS
VL: ELTQDPAVSVALGQTVRITCSGRSGSYGWYQQKPGQAPVLVIYDNTNRPSGIPDRFSGSSSGNTASLTITGAQAEDEADYYCGGYWGSTDVFGGGTKLTVL
B12: A210 scFv (scFv, V domains shown)
VH: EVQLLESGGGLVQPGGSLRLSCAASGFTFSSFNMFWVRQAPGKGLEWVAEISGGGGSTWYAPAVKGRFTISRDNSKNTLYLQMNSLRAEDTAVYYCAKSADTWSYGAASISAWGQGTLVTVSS
VL: ELTQDPAVSVALGQTVRITCSGRSGSYGWYQQKPGQAPVLVIYDNTNRPSGIPDRFSGSSSGNTASLTITGAQAEDEADYYCGGYWGSTDVFGGGTKLTVL
B13: A216 scFv (scFv, V domains shown)
VH: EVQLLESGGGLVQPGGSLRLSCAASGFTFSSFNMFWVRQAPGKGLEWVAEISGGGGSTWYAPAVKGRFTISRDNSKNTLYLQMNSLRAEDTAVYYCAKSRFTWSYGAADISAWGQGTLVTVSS
VL: ELTQDPAVSVALGQTVRITCSGRSGSYGWYQQKPGQAPVLVIYDNTNRPSGIPDRFSGSSSGNTASLTITGAQAEDEADYYCGGYWGSTDVFGGGTKLTVL
B14: A213 scFv (scFv, V domains shown)
VH: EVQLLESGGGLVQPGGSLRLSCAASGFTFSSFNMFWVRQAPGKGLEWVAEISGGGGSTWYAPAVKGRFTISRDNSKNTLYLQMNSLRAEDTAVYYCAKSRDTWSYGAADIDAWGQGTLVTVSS
VL: ELTQDPAVSVALGQTVRITCSGSSGSYGWYQQKPGQAPVLVIYDNTNRPSGIPDRFSGSSSGNTASLTITGAQAEDEADYYCGGYWGSTDVFGGGTKLTVL
B15: A202 scFv (scFv, V domains shown)
VH: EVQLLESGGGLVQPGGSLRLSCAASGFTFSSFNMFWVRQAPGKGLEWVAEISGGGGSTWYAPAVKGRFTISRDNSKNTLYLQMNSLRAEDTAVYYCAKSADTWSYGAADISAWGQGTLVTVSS
VL: ELTQDPAVSVALGQTVRITCSGRSGSYGWYQQKPGQAPVLVIYDNTNRPSGIPDRFSGSSSGNTASLTITGAQAEDEADYYCGGYWGSTDVFGGGTKLTVL
B16: A219 scFv (scFv, V domains shown)
VH: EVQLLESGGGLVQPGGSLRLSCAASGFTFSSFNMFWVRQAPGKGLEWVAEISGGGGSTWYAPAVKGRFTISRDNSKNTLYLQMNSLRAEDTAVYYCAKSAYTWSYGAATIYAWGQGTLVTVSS
VL: ELTQDPAVSVALGQTVRITCSGSSGSYGWYQQKPGQAPVLVIYDNTNRPSGIPDRFSGSSSGNTASLTITGAQAEDEADYYCGGYWGSTDVFGGGTKLTVL
B17: A206 scFv (scFv, V domains shown)
VH: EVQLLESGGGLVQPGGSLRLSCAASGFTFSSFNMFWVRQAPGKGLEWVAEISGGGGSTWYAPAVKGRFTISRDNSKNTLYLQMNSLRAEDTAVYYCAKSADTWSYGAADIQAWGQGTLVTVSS
VL: ELTQDPAVSVALGQTVRITCSGRSGSYGWYQQKPGQAPVLVIYDNTNRPSGIPDRFSGSSSGNTASLTITGAQAEDEADYYCGGYWGSTDVFGGGTKLTVL
B18: A207 scFv (scFv, V domains shown)
VH: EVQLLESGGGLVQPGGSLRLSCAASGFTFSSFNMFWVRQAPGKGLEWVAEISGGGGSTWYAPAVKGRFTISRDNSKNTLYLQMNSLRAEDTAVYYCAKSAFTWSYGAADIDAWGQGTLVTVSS
VL: ELTQDPAVSVALGQTVRITCSGSSGSYGWYQQKPGQAPVLVIYDNTNRPSGIPDRFSGSSSGNTASLTITGAQAEDEADYYCGGYWGSTDVFGGGTKLTVL
B19: A214 scFv (scFv, V domains shown)
VH: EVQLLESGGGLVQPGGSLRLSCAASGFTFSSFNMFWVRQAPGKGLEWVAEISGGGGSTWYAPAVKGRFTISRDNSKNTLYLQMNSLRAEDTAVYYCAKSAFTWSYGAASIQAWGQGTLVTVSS
VL: ELTQDPAVSVALGQTVRITCSGSSGSYGWYQQKPGQAPVLVIYDNTNRPSGIPDRFSGSSSGNTASLTITGAQAEDEADYYCGGYWGSTDVFGGGTKLTVL
B20: A101 scFv (scFv, V domains shown)
VH: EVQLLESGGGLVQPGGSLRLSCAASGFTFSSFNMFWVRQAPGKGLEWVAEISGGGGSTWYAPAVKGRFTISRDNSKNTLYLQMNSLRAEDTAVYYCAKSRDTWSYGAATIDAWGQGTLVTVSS
VL: ELTQDPAVSVALGQTVRITCSGSSGSYGWYQQKPGQAPVLVIYDNTNRPSGIPDRFSGSSSGNTASLTITGAQAEDEADYYCGGYDGSTDVFGGGTKLTVL
B21: A105 scFv (scFv, V domains shown)
VH: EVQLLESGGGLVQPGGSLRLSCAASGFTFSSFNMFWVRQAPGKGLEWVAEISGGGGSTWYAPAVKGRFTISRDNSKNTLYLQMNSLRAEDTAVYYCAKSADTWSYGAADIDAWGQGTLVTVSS
VL: ELTQDPAVSVALGQTVRITCSGSSGSYGWYQQKPGQAPVLVIYDNTNRPSGIPDRFSGSSSGNTASLTITGAQAEDEADYYCGGYDGSTDVFGGGTKLTVL
B22: A107 scFv (scFv, V domains shown)
VH: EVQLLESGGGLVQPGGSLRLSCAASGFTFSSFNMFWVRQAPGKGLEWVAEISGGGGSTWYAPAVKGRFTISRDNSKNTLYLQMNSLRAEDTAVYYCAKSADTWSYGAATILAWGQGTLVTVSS
VL: ELTQDPAVSVALGQTVRITCSGSSGSYGWYQQKPGQAPVLVIYDNTNRPSGIPDRFSGSSSGNTASLTITGAQAEDEADYYCGGYDGSTDVFGGGTKLTVL
B23: A106 scFv (scFv, V domains shown)
VH: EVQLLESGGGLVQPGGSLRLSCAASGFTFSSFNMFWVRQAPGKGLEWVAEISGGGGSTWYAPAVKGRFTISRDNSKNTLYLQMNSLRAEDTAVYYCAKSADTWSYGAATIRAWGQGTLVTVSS
VL: ELTQDPAVSVALGQTVRITCSGSSGSYGWYQQKPGQAPVLVIYDNTNRPSGIPDRFSGSSSGNTASLTITGAQAEDEADYYCGGYDGSTDVFGGGTKLTVL

biological target: T1, human CNTN4 overexpressed on cells; assay: FACS, scFv periplasm on human CNTN4-overexpressing 293F cells, PE anti-His detection

Point of comparison: B9, EC50 2 nM. Against it:
- B1 — within 1.5-fold, 2.3 nM
- B2 — 1.9-fold higher, 3.7 nM
- B3 — within 1.5-fold, 2.8 nM
- B4 — 1.8-fold higher, 3.6 nM
- B5 — 1.6-fold higher, 3.1 nM
- B6 — within 1.5-fold, 1.7 nM
- B7 — 1.6-fold higher, 3.3 nM
- B8 — within 1.5-fold, 2.7 nM
- B10 — 1.9-fold higher, 3.7 nM
- B11 — 1.6-fold higher, 3.2 nM
- B12 — 2.2-fold higher, 4.4 nM
- B13 — within 1.5-fold, 2.9 nM
- B14 — 1.6-fold higher, 3.2 nM
- B15 — 1.5-fold higher, 3 nM
- B16 — 1.9-fold higher, 3.9 nM
- B17 — 2.4-fold higher, 4.8 nM
- B18 — 1.6-fold higher, 3.2 nM
- B19 — 1.8-fold higher, 3.5 nM

Point of comparison: B1, “Top MFI” value 1600 MFI. Against it:
- B2 — lower, 1290 MFI
- B3 — higher, 1740 MFI
- B4 — lower, 1470 MFI
- B5 — lower, 1370 MFI
- B6 — higher, 1700 MFI
- B7 — lower, 1240 MFI
- B8 — higher, 1630 MFI
- B9 — lower, 1300 MFI
- B10 — lower, 1320 MFI
- B11 — lower, 1380 MFI
- B12 — lower, 1380 MFI
- B13 — higher, 1630 MFI
- B14 — higher, 1700 MFI
- B15 — higher, 1750 MFI
- B16 — lower, 1270 MFI
- B17 — lower, 1370 MFI
- B18 — higher, 1620 MFI
- B19 — lower, 1460 MFI

biological target: T2, mouse CNTN4 overexpressed on 293F cells; assay: FACS, scFv periplasm on mouse CNTN4-overexpressing 293F cells, PE anti-His detection

Point of comparison: B21, EC50 13.9 nM. Against it:
- B20 — 2.4-fold higher, 33.2 nM
- B22 — within 1.5-fold, 13.6 nM
- B23 — 5.2-fold higher, 72.6 nM

Point of comparison: B22, “Top MFI” value 4110 MFI. Against it:
- B20 — lower, 2070 MFI
- B21 — lower, 2460 MFI
- B23 — lower, 2740 MFI
